Among the data in patent publication US20050031631A1 are % inhibition, skin prick test, patients with Type I immediate hypersensitivity (out of 10 patients) and skin prick test, patients with a positive reaction (out of 10 patients) values, retold here.

In assay [1] the target is human IgE from a pool of sera (n=10) of Pj monosensitive allergic patients (human). The experiment in a line: ELISA inhibition: pool of sera (n=10, 1:5) preincubated with the protein (0.25-20 ug/ml), then on wells coated with rParj1; bound IgE detected. A general note: ELISA stands for enzyme-linked immunosorbent assay.
In assay [2] the target is human IgE of ten monosensitive Pj allergic patients (single sera / the patients themselves) (human). The experiment in a line: cell-based or functional assay.

Changes are numbered by the printed parent chain.

B1: PjB mutant of Par j 1.0102 (Cys50->Ser and Cys52->Ser) (protein, not shown: small tags and cut ends)
chain: QETCGTMVRALMPCLPFVQGKEKEPSKGCCSGAKRLDGETKTGPQRVHASESIQTAMKTYSDIDGKLVSEVPKHCGIVDSKLPPIDVNMDCKTVGVVPRQPQLPVSLRHGPVTGPSDPAHKARLERPQIRVPPPAPEKA
As a reminder, the % inhibition is the relative decrease from the control value, in per cent. Higher therefore signals strong suppression. Turning to B1, in assay [1], the % inhibition is 85%. In assay [2], this molecule came in with a skin prick test, patients with Type I immediate hypersensitivity (out of 10 patients) of 9.

B2: PjD mutant of Par j 1.0102 (Cys29->Ser, Cys30->Ser, Cys50->Ser and Cys52->Ser) (protein, not shown: small tags and cut ends)
chain: B1 chain with C29S, C30S
In turn, B2 showed a % inhibition in assay [1] of 15%.

B3: PjA mutant of Par j 1.0102 (Cys29->Ser and Cys30->Ser) (protein, not shown: small tags and cut ends)
chain: B1 chain with C29S, C30S, S50C, S52C
Molecule B3 showed a % inhibition in assay [1] of 16%. Also, the skin prick test, patients with a positive reaction (out of 10 patients) in assay [2] was found to be 3.

B4: PjC mutant of Par j 1.0102 (Cys4->Ser, Cys29->Ser and Cys30->Ser) (protein, not shown: small tags and cut ends)
chain: B1 chain with C4S, C29S, C30S, S50C, S52C
B4 yielded a % inhibition in assay [1] of 14%.

B5: recombinant Par j 1.0102, major allergen of Parietaria judaica (wild type) (protein, not shown: small tags and cut ends)
chain: B1 chain with S50C, S52C
In turn, B5 gave a % inhibition in assay [1] of 95%.
